Measurements: US20190161551A1 (Regeneron, published 2019)

B2: human brain derived neurotrophic factor (ligand, UniProt P23560 129-247, looked up)
chain: HSDPARRGELSVCDSISEWVTAADKKTAVDMSGGTVTVLEKVPVSKGQLKQYFYETKCNPMGYTKEGCRGIDKRHWNSQCRTTQSYVRALTMDSKKRIGWRFIRIDTSCVCTLTIKRGR
B3: rat TrkB extracellular domain expressed with a C-terminal myc-myc-hexahistidine tag (receptor)
chain: CPMSCKCSTTRIWCTEPSPGIVAFPRLEPNSIDPENITEILIANQKRLEIINEDDVEAYVGLKNLTIVDSGLKFVAYKAFLKNGNLRHINFTRNKLTSLSRRHFRHLDLSDLILTGNPFTCSCDIMWLKTLQETKSSPDTQDLYCLNESSKNTPLANLQIPNCGLPSARLAAPNLTVEEGKSVTISCSVGGDPLPTLYWDVGNLVSKHMNETSHTQGSLRITNISSDDSGKQISCVAENLVGEDQDSVNLTVHFAPTITFLESPTSDHHWCIPFTVRGNPKPALQWFYNGAILNESKYICTKIHVTNHTEYHGCLQLDNPTHMNNGDYTLMAKNEYGKDERQISAHFMGRPGVDYETNPNYPEVLYEDWTTPTDIGDTTNKSNEIPSTDVADQTNREHEQKLISEEDLGGEQKLISEEDLHHHHHH
notes: also called rTrkB.mmH; rTRKB.mmH

Experiments:
[1] = target: T1, mouse TrkB extracellular domain fused to the transmembrane and cytoplasmic domains of human TrkB, expressed … (mouse; human, UniProt Q16620 431-822, limits assumed); assay: cell-based or functional assay
[2] = target: T2, human TrkB expressed on HEK293/SRE-Luc/hTrkB cells (human, UniProt Q16620 32-822); assay: cell-based or functional assay
mouse TrkB.hFc [3] = target: T3, mouse TrkB.hFc (mouse); assay: BLI Octet, captured mTrkB.hFc, 300 nM mAb (BDNF run)
T3 construct: also called mTrkB.hFc; mTrkB-hFc
Procedure: (§1) Blocking of BDNF or NT-4 from binding to TrkB by anti-human TrkB or anti-mouse TrkB antibodies was evaluated using a real-time bio-layer interferometry (BLI) based Octet HTX instrument. The entire study was performed in 10 mM HEPES pH 7.4, 300 mM NaCl, 3 mM EDTA, 1 mg/mL BSA, 0.02% NaN3 and 0.05% v/v Surfactant Tween-20 (HBS-EBT running buffer) at 25° C. All the samples were dispensed in a 384 tilted well plate and the plate was placed on the orbital shaker with the shake speed of 1000 rpm. hTrkB.mFc was captured on anti-mFc (AMC) Octet sensors while hTrkB.hFc or mTrkB.hFc were captured on anti-hFc (AHC) Octet sensors by dipping in wells containing 10 μg/mL of TrkB reagents for 2 minutes. hTrkB.mFc or hTrkB.hFc captured Octet biosensors were saturated by dipping in wells containing 300 nM of different TrkB mAbs for 4 minutes followed by dipping Octet biosensors in wells containing 20 nM of BDNF, hNT-4, or mNT-4 for 2 minutes. Binding of BDNF, hNT-4, or mNT-4 to the complex of TrkB and different TrkB mAbs was determined using Scrubber 2.0c analysis software.

[4] = target: B3; assay: SPR Biacore T200, mAb captured (anti-mFc), 25C
Procedure: (§2) Equilibrium dissociation constants (KD values) for TrkB binding to purified anti-TrkB monoclonal antibodies were determined using a real-time surface plasmon resonance biosensor using a Biacore T200 instrument. All binding studies were performed in 10 mM Hepes pH 7.4, 150 mM NaCl, 3 mM EDTA, and 0.05% v/v Surfactant Tween-20 (HBS-ET running buffer) at 25° C. The Biacore sensor surface was first derivatized by amine coupling with rabbit anti-mouse Fc polyclonal antibody (GE Healthcare #BR-1008-38) to capture anti-TrkB monoclonal antibodies. Binding studies were performed on the following TrkB reagents; human TrkB extracellular domain expressed with a C-terminal myc-myc-hexahistidine tag (hTrkB.mmH; SEQ ID NO: 76; NP_001018074.1), mouse TrkB extracellular domain expressed with a C-terminal myc-myc-hexahistidine tag (mTRKB.mmH; SEQ ID NO: 79; NP_001020245), and rat TrkB extracellular domain expressed with a C-terminal myc-myc-hexahistidine tag (rTRKB.mmH; SEQ ID NO: 84; XP_002721319.1). […] Kinetic association (kₐ) and dissociation (kd) rate constants were determined by fitting the real-time binding sensorgrams to a 1:1 binding model with mass transport limitation using Scrubber 2.0c curve-fitting software. Binding dissociation equilibrium constants (KD) and dissociative half-lives (t½) were calculated from the kinetic rate constants as: […]

[5] = target: T4, mouse TrkB extracellular domain expressed with a C-terminal myc-myc-hexahistidine tag (mouse, UniProt P15209 32-429); assay: SPR Biacore T200, mAb captured (anti-mFc), 25C
T4 construct: also called mTrkB.mmH; mTRKB.mmH
Procedure: as §2

[6] = target: T5, human TrkB extracellular domain expressed with a C-terminal myc-myc-hexahistidine tag (human, UniProt Q16620 32-430); assay: SPR Biacore T200, mAb captured (anti-mFc), 25C
T5 construct: also called hTrkB.mmH; hTRKB.mmH
Procedure: as §2

mouse TrkB.hFc [7] = target: T3, mouse TrkB.hFc; assay: BLI Octet, captured mTrkB.hFc saturated with BDNF, 300 nM mAb
Procedure: (§3) Blocking of anti-human TrkB or anti-mouse TrkB antibodies from binding to TrkB by BDNF or NT-4 was evaluated using a real-time bio-layer interferometry (BLI) based Octet HTX instrument. The entire study was performed in 10 mM HEPES pH 7.4, 300 mM NaCl, 3 mM EDTA, 1 mg/mL BSA, 0.02% NaN3 and 0.05% v/v Surfactant Tween-20 (HBS-EBT running buffer) at 25° C. All the samples were dispensed in a 384 tilted well plate and the plate was placed on the orbital shaker with the shake speed of 1000 rpm. hTrkB.mFc was captured on anti-mFc (AMC) Octet sensors while hTrkB.hFc or mTrkB.hFc were captured on anti-hFc (AHC) Octet sensors by dipping in wells containing 10 μg/mL of TrkB reagents for 2 minutes. hTrkB.mFc or hTrkB.hFc captured Octet biosensors were saturated by dipping in wells containing 20 nM of BDNF, hNT-4, or mNT-4 for 2 minutes followed by dipping Octet biosensors in wells containing 300 nM of different TrkB mAbs for 4 minutes. Binding of TrkB mAbs to the complex of TrkB and BDNF, hNT-4, or mNT-4 was determined using Scrubber 2.0c analysis software.

mouse TrkB.hFc [8] = target: T3, mouse TrkB.hFc; assay: BLI Octet, captured mTrkB.hFc, 300 nM mAb, no ligand
Procedure: as §3

mouse TrkB.hFc [9] = target: T3, mouse TrkB.hFc; assay: BLI Octet, captured mTrkB.hFc, 300 nM mAb (NT-4 run)
Procedure: as §1

mouse TrkB.hFc [10] = target: T3, mouse TrkB.hFc; assay: blocking ELISA, mouse TrkB.hFc pre-mixed with mAb, plate-coated BDNF
Procedure: (§4) Experiments were carried out using the following procedure. Human BDNF was coated at a concentration of 0.5 μg/mL (for blocking mouse TrkB.hFc interaction) or 0.3 μg/mL (for blocking rat TrkB.mmh interaction) in PBS on 96-well microtiter plate and incubated overnight at 4° C. […] In a 96-well dilution plate, 850 pM mouse TrkB.hFc or rat TrkB.mmh was mixed with the three-fold serially diluted anti-mouse TrkB antibodies and control antibody. The final antibody concentrations ranged from 1.69 pM to 100 nM. The protein-antibody mix was incubated at room temperature (RT) for 1 hour. The pre-bound mix was then transferred in duplicates to microtiter plates coated with BDNF. A control containing assay buffer alone was included to calculate the baseline of the assay. The ELISA plates were incubated at RT for 1 hour and then washed with plate washing solution. Plate-bound mouse TrkB.hFc was detected with HRP-conjugated goat anti-human Fcγ fragment specific antibody (Jackson Immunoresearch) and rat TrkB.mmh was detected with HRP-conjugated anti-histidine antibody (Qiagen). The plates were incubated with detection antibody for 1 hour at RT and then washed with plate washing solution. The assay plates were developed with TMB colorimetric substrates according to the manufacturer's recommended procedure.
(§5) The absorbance at 450 nm for each well was recorded and plotted as a function of the concentration of antibody. Data was analyzed in GraphPad Prism software using a four-parameter logistic equation over an 11-point dose response curve and IC₅₀ values were calculated. […] Percent blockade at maximum concentration of the antibody tested was calculated as an indicator of the ability of the antibodies to block the binding of TrkB to BDNF on the plate relative to the baseline of the assay. Binding signal of 850 pM mouse or rat TrkB in absence of the antibody was defined as 100% binding or 0% blocking. The baseline signal of assay buffer alone was defined as 0% binding or 100% blocking.

mouse TrkB.hFc [11] = target: T3, mouse TrkB.hFc; assay: BLI Octet, captured mTrkB.hFc saturated with mNT-4, 300 nM mAb
Procedure: as §3

[12] = target: B3; assay: blocking ELISA, rat TrkB.mmh pre-mixed with mAb, plate-coated BDNF
Procedure: as §4, §5

[13] = target: T1, mouse TrkB extracellular domain fused …; assay: cell-based or functional assay; remark: listed apart in the source
[14] = target: T2, human TrkB expressed on …; assay: cell-based or functional assay; remark: listed apart in the source
[15] = target: B2; assay: ELISA: dose curve of rat TrkB.mmh binding to plate-coated BDNF, absorbance 450 nm
Procedure: as §4, with “A control containing assay buffer alone was included to calculate the baseline of the assay. The ELISA plates were incubated at RT for 1 hour and then washed with plate washing solution.” left out, “The plates were incubated with detection antibody for 1 hour at RT and then washed with plate washing solution. The assay plates were developed with TMB colorimetric substrates according to the manufacturer's recommended procedure.” left out
The absorbance at 450 nm for each well was recorded and plotted as a function of the concentration of antibody. Data was analyzed in GraphPad Prism software using a four-parameter logistic equation over an 11-point dose response curve and IC₅₀ values were calculated. […] Percent blockade at maximum concentration of the antibody tested was calculated as an indicator of the ability of the antibodies to block the binding of TrkB to BDNF on the plate relative to the baseline of the assay. […]

[16] = target: B2; assay: ELISA, dose-response of TrkB on plate-coated BDNF
From the text: FIG. 5. Consists of FIG. 5A and FIG. 5B which show the ability of anti-mouse TrkB monoclonal antibodies to block interaction between mouse or rat TrkB and its ligand BDNF (Brain Derived Neurotrophic Factor). ELISA-based methods were used to assess the binding of (FIG. 5A with two graphs) mouse TrkB.hFc and (FIG. 5B with two graphs) rat TrkB.mmh to plate coated BDNF in presence of a range of concentrations of Anti-mouse TrkB and isotype control mAbs. […] Molarity (M) indicates antibody concentration for mAbs. Error bars represent Standard Deviation.
Experiments were carried out using the following procedure. Human BDNF was coated at a concentration of 0.5 μg/mL (for blocking mouse TrkB.hFc interaction) or 0.3 μg/mL (for blocking rat TrkB.mmh interaction) in PBS on 96-well microtiter plate and incubated overnight at 4° C. […] In a 96-well dilution plate, 850 pM mouse TrkB.hFc or rat TrkB.mmh was mixed with the three-fold serially diluted anti-mouse TrkB antibodies and control antibody. The final antibody concentrations ranged from 1.69 pM to 100 nM. The protein-antibody mix was incubated at room temperature (RT) for 1 hour. […] Plate-bound mouse TrkB.hFc was detected with HRP-conjugated goat anti-human Fcγ fragment specific antibody (Jackson Immunoresearch) and rat TrkB.mmh was detected with HRP-conjugated anti-histidine antibody (Qiagen). […]

T3 sequence (chain, as listed by the source limits assumed): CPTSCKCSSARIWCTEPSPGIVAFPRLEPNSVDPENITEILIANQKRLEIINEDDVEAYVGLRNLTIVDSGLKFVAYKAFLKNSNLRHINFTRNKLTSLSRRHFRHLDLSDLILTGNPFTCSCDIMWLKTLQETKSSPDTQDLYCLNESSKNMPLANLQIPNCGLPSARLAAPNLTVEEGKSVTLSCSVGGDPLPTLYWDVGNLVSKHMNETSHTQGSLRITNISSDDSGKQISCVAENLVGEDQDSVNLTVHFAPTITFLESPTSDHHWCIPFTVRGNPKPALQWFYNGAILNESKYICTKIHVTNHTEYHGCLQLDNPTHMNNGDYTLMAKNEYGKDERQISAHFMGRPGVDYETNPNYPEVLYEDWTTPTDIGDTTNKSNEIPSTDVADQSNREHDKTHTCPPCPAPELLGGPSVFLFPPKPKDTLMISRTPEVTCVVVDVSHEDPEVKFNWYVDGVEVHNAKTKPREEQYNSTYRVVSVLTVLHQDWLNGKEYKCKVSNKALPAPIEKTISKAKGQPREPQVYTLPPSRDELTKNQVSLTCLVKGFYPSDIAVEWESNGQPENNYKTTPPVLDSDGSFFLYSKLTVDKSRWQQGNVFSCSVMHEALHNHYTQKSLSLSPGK
T1 sequence (Q16620 other isoform, or with tags, fused parts or gaps limits assumed, form in doubt): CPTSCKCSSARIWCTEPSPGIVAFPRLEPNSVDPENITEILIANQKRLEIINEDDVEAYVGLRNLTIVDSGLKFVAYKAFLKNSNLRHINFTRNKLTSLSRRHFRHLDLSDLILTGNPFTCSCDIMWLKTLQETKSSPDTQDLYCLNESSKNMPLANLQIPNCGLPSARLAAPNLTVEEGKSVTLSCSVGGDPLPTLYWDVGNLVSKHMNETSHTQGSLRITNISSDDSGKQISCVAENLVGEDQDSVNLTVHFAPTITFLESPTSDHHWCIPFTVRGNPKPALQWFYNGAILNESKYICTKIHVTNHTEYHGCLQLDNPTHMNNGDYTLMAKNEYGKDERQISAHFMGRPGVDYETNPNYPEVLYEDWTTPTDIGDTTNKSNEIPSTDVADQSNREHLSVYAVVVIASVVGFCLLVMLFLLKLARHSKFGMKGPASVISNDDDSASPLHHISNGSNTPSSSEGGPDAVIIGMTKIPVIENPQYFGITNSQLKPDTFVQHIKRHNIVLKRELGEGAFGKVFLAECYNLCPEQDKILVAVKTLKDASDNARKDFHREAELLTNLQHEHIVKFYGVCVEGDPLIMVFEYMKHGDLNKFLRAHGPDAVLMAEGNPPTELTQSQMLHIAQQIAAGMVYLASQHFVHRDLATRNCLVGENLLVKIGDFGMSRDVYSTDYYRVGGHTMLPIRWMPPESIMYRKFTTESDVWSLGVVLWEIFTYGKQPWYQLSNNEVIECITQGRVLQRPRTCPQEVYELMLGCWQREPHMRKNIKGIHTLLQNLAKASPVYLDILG
T2 sequence (Q16620 32-822): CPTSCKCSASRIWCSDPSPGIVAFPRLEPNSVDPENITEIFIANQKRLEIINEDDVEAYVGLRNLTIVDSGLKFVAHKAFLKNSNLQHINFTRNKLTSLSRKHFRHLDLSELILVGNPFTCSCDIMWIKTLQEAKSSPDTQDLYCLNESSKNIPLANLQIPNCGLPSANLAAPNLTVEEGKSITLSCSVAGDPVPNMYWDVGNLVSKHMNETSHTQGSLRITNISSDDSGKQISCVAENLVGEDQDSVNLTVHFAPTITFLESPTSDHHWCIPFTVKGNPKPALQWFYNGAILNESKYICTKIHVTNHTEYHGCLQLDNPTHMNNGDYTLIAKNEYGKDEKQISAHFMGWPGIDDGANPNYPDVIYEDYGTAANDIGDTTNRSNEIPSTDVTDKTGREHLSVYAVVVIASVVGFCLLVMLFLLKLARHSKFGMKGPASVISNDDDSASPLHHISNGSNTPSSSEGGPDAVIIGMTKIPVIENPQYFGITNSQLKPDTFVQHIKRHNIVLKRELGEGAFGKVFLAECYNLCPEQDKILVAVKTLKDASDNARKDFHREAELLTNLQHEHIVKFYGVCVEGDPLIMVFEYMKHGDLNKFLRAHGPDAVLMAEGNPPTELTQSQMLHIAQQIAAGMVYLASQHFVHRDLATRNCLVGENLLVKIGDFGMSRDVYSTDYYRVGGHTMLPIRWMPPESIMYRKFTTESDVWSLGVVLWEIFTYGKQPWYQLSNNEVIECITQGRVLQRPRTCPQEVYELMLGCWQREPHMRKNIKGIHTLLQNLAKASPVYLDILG

B1: M2aM14178N (antibody, mouse IgG2a, V domains shown)
VH: EVQLVESGGGLVKPGGSLKLSCTASGFTFSSYAMSWVRQTPEKRLEWVANISDGGTYTYYPDNIKGRFTISRDNAKNNLYLQMSHLESEDTAMYYCIRGDVYYVRFAYWGQGTLVTVSA
VL: QAVVTQESALTTSPGETVTLTCRSSTGAVTSSNHANWVQEKPDHLFTGLIGGTNNRAPGVPARFSGSLIGDKAALTITGAQTEDEAIYFCALWHSNHWVFGGGTKLTVLG
notes: Anti-mouse TrkB antibody from hybridoma, mouse IgG2a Fc; also called surrogate anti-mouse TrkB antibody
Activation (%), SRE-luciferase, 100 pM BDNF [1]: 67%
Activation (%), SRE-luciferase, No BDNF [1]: 76%
EC50 (M), SRE-luciferase, 100 pM BDNF [1]: 1e-10 M
EC50 (M), SRE-luciferase, No BDNF [1]: 1.9e-10 M
Activation (%), SRE-luciferase, 100 pM BDNF [2]: 52%
Activation (%), SRE-luciferase, No BDNF [2]: 0%
mAb Binding (nm) (mouse TrkB.hFc [3]): 0.47 nm
90 nM rTrkB.mmH Bound (RU) [4]: 11 RU
Kd [4]: 2.56 nM
koff [4]: 0.00023 s⁻¹
kon [4]: 90000 M⁻¹ s⁻¹
t½ [4]: 50 min
90 nM TrkB.mmH Bound (RU) [5]: 12 RU
Kd [5]: 2.39 nM
koff [5]: 0.000247 s⁻¹
kon [5]: 103000 M⁻¹ s⁻¹
t½ [5]: 47 min
90nM hTrkB.mmH Bound (RU) [6]: -1 RU
antibody Binding (nm) (mouse TrkB.hFc [7]): 0.35 nm
antibody Binding (nm) (mouse TrkB.hFc [8]): 0.47 nm
mAb Binding (nm) (mouse TrkB.hFc [9]): 0.47 nm
% Blockade with 100 nM antibody (mouse TrkB.hFc [10]): 84.4%
IC50 (mouse TrkB.hFc [10]): 0.426 nM
antibody Binding (nm) (mouse TrkB.hFc [11]): 0.41 nm
% Blockade with 100 nM antibody [12]: 89.5%
IC50 [12]: 0.184 nM

B2
BDNF EC50 (M), SRE-luciferase (run of the 100 pM BDNF columns) [1]: 1.1e-10 M
BDNF EC50 (M), SRE-luciferase (run of the No BDNF columns) [1]: 7.4e-11 M
BDNF EC50 (M), SRE-luciferase (run of the 100 pM BDNF columns) [2]: 1e-10 M
BDNF EC50 (M), SRE-luciferase (run of the No BDNF columns) [2]: 1.3e-10 M
BDNF EC50 (M), SRE-luciferase [13]: 7.4e-11 M
BDNF EC50 (M), SRE-luciferase [14]: 1e-10 M

B3
EC50 [15]: 2.22 nM
EC50 [16]: 2.2 nM
